According to article PMC2697320, “Identification of the high affinity binding site in the Streptococcus intermedius toxin intermedilysin for its membrane receptor, the human complement regulator CD59” (Molecular Immunology, 2009):

Target: T1, Recombinant soluble CD59 comprising amino acids 1-76 with an 11 amino acid Ser/Gly linker and termin (human, terminal Cys reduced with TCEP and thiol-coupled to the PDEA-modified CM5 chip)
T1 construct: also called recombinant CD59; immobilised CD59
Assay: SPR
Settings: both partners purified

B1: ILY peptide (peptide containing ILY residues 461-469 with flanking residues and an added C-terminal cysteine) (peptide)
chain: AWEPWRLIYSKNDLPLVPC
  Kd: 4.92 µM
